The assay addresses FLS:Trg:EnvZ:AHK4 hybrid transmembrane histidine kinase (FLS2 plant leader, Trg extracellular domain, EnvZ, …). The experiment in a line: cell-based or functional assay.

B1: SS-TNT, computationally designed TNT receptor (sensor protein): PEX secretory sequence fused to the periplasmic ribose binding protein engineered to bind TNT (designed binder)
chain: MERPFGCFFILLLISYTVVAKDTIALVVSTLNSPFLVSLKDGAQKEADKLGYNLVVLDSQNNPAKELANVQDLTVRGTKILLINPTDSDAVGNAVKMANQANIPVITLSSQATKGEVVSHIASDNVLGGKIAGDYIAKKAGEGAKVIELQGIAGTSSARESGEGFQQAVAAHKFNVLASQPADIDRIKGLNVMQNLLTAHPDVQAVFAQFDEMALGALRALQTAGKSDVMVVGFSGTPDGEKAVNDGKLAATIASLPDQIGAKGVETADKVLKGEKVQAKYPVDLKLVVKQDYKDDDDK
Consider B1, for which the “GUS expression from the ARR5 promoter in transgenic Arabidopsis in response to TNT” value was roughly 2 fold.

Source of the values: patent US20090130697A1 (COLORADO STATE UNIVERSITY RESEARCH FOUNDATION, published 2009).
